Measurements taken from the supplement of paper PMC10065799, “High-throughput profiling of sequence recognition by tyrosine kinases and SH2 domains using bacterial peptide display” (eLife, 2023).

How the values were obtained:
Grb2 SH2 = Grb2 SH2 (UniProt P62993); experiment: SH2 binding enrichment of the phosphorylated peptide, bacterial display (enrichment ratio); higher = better substrate or ligand; peptides without Tyr show the background
c-Src SH2 = experiment: as above
SHP2-C SH2 = experiment: as above
FGFR1 = FGFR1 (UniProt P11362); experiment: phosphorylation enrichment, bacterial display (enrichment ratio); higher = better substrate or ligand; peptides without Tyr show the background
Jak2 = Jak2 (UniProt O60674); experiment: as above
EPHB2 = EPHB2 (UniProt P29323); experiment: as above
c-Abl (mouse) = experiment: as above
MERTK = MERTK (UniProt Q12866); experiment: as above
FGFR3 = FGFR3 (UniProt P22607); experiment: as above
AncSZ = experiment: as above
Hck = Hck (UniProt P08631); experiment: as above
Fes = Fes (UniProt P07332); experiment: as above
EPHB1 = EPHB1 (UniProt P54762); experiment: as above
Fyn = Fyn (UniProt P06241); experiment: as above
c-Src = experiment: as above
Fer (mouse) = experiment: as above
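Wherever SH2 binding enrichment of the phosphorylated peptide, bacterial display is given: peptide library displayed on the E. coli surface as eCPX fusions, selected cells deep-sequenced, score is each peptide's frequency after selection divided by its frequency in the input.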
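Wherever phosphorylation enrichment, bacterial display is given: 11-residue human phosphosite peptides and single-mutation variants displayed on the E. coli surface, counted by deep sequencing, each peptide's frequency after selection divided by its frequency in the unselected input library; frequency after pTyr selection over input frequency; kinase dosed for 20-30% of maximal phosphorylation in three min.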

Sequence of Grb2 SH2 (P62993 whole entry, looked up): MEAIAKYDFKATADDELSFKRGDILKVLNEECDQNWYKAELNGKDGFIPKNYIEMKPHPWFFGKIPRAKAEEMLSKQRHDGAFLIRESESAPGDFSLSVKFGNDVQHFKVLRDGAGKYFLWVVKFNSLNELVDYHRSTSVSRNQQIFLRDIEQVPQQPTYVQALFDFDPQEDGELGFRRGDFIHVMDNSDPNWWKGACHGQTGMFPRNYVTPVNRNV
Sequence of Fes (P07332 whole entry, looked up): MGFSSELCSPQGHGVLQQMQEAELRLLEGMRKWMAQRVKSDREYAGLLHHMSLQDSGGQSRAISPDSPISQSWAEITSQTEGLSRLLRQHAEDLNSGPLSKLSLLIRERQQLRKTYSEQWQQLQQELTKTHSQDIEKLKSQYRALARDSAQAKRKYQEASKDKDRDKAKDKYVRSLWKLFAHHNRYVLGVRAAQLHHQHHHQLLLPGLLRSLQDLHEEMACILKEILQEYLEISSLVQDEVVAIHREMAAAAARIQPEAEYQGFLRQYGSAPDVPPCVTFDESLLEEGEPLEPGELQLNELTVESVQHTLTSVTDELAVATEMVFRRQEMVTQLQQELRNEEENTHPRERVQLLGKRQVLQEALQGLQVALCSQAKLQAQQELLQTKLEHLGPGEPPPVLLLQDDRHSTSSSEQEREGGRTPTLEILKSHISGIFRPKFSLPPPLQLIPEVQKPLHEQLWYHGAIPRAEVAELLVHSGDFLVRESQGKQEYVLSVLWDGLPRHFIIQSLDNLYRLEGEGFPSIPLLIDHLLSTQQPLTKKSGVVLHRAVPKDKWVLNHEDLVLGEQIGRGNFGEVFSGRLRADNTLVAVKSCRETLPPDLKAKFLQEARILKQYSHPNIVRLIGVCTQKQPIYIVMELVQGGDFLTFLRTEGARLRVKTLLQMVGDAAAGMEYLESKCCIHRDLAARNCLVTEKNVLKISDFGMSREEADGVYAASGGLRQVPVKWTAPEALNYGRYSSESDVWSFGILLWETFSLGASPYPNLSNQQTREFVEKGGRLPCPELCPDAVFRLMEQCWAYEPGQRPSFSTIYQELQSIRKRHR
Sequence of Fyn (P06241 whole entry, looked up): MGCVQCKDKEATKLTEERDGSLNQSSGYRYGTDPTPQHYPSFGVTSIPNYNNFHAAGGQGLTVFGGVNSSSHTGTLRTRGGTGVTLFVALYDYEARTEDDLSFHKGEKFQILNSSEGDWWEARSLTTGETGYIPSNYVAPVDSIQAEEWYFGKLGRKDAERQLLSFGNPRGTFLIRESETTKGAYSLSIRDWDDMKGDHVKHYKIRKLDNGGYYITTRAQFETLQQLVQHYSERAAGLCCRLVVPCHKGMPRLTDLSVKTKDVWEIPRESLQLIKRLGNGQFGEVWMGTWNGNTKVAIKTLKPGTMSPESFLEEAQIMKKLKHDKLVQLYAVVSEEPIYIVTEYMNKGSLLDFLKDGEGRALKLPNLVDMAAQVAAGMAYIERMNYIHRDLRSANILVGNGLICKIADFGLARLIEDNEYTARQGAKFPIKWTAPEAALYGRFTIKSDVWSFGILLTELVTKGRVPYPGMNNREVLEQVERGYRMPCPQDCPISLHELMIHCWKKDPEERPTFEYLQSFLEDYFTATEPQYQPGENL
Sequence of Jak2 (O60674 whole entry, looked up): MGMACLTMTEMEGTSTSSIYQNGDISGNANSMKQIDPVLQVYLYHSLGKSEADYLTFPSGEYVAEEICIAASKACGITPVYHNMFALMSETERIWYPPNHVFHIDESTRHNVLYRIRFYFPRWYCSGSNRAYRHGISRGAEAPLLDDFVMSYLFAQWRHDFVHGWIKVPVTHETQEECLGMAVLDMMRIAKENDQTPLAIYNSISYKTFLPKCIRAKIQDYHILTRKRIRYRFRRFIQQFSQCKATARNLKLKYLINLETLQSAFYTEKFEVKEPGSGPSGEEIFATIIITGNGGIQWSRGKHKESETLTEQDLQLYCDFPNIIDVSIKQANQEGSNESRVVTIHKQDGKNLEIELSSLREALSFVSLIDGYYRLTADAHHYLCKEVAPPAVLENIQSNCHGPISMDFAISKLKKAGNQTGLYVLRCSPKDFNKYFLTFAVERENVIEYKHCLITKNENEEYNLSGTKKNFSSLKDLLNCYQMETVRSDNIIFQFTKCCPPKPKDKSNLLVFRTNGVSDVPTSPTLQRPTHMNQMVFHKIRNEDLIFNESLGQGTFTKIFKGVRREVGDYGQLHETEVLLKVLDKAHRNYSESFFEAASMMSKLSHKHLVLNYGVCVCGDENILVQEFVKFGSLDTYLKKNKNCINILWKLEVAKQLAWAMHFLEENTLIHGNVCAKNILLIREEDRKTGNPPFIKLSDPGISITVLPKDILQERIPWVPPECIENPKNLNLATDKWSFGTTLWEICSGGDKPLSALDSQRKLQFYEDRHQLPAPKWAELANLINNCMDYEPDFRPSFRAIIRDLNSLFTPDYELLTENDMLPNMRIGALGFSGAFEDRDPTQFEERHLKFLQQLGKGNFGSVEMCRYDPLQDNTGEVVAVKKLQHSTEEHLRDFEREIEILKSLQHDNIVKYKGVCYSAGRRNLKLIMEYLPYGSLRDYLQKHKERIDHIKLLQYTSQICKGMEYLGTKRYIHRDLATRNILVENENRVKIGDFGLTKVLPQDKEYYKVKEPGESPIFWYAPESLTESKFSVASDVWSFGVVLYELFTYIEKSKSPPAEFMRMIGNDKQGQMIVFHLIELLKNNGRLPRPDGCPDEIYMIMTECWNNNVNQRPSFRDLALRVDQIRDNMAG
Sequence of FGFR1 (P11362 whole entry, looked up): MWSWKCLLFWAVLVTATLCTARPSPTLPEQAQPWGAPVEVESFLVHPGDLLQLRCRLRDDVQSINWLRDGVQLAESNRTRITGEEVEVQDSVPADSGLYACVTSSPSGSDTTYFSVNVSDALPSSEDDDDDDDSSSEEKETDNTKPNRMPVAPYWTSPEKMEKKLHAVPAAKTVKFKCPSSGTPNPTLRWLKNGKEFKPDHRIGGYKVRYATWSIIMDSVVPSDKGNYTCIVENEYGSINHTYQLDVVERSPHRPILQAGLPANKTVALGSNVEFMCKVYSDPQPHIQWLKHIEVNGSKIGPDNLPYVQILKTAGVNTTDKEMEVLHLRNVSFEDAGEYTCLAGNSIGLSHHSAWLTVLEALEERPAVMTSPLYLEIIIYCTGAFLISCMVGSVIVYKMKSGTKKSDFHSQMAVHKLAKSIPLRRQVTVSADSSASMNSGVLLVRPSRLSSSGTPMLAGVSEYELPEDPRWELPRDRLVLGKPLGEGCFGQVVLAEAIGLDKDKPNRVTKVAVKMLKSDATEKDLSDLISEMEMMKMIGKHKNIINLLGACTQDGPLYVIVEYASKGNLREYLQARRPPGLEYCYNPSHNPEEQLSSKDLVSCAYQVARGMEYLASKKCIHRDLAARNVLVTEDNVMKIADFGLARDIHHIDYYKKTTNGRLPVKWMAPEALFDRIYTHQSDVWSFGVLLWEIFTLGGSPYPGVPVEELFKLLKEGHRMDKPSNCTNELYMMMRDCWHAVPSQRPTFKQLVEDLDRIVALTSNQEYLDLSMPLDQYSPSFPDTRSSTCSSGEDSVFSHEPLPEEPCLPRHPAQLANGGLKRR
Sequence of EPHB1 (P54762 whole entry, looked up): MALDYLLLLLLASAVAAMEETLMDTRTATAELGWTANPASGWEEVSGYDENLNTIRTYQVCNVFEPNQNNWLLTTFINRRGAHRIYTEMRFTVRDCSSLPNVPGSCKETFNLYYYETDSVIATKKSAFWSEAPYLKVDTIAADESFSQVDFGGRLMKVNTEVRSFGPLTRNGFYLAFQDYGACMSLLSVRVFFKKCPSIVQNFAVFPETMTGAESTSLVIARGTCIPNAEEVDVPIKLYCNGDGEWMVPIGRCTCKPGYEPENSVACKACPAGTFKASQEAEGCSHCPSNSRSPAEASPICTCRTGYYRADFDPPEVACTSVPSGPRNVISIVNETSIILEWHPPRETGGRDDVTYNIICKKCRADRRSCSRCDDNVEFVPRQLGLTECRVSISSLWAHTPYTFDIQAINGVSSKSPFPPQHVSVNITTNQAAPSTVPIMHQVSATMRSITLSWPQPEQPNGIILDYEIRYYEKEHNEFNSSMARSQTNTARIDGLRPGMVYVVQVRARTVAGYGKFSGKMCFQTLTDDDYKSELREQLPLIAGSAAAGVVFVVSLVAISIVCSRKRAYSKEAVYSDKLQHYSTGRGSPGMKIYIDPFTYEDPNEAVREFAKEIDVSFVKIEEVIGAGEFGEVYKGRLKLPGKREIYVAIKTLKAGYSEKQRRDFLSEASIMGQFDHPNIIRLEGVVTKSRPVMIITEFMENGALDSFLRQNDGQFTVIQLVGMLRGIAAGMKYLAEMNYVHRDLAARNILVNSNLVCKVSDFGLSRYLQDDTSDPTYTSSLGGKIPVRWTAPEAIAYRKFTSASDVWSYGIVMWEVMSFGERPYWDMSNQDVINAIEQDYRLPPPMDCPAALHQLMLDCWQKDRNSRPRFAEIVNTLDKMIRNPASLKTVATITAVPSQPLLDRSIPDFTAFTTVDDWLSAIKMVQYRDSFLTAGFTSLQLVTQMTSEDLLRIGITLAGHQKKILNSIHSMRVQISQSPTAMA
Sequence of Hck (P08631 whole entry, looked up): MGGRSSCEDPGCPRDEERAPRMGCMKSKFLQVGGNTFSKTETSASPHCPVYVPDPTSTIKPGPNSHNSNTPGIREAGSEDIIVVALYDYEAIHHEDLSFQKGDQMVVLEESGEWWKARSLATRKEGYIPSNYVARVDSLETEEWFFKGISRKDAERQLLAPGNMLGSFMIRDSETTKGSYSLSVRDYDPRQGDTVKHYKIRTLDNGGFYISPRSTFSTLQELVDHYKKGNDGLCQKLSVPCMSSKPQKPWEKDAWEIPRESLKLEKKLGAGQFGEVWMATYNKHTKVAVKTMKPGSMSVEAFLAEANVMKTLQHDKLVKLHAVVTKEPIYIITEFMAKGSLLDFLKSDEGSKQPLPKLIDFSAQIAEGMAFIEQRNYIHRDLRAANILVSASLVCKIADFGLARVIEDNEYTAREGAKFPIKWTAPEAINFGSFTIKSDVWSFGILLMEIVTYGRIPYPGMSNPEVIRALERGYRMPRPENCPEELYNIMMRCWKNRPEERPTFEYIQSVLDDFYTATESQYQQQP

Sequence | SH2 binding enrichment (Grb2 SH2) | SH2 binding enrichment (c-Src SH2) | SH2 binding enrichment (SHP2-C SH2) | phosphorylation enrichment (FGFR1) | phosphorylation enrichment (Jak2) | phosphorylation enrichment (EPHB2) | phosphorylation enrichment (c-Abl (mouse)) | phosphorylation enrichment (MERTK) | phosphorylation enrichment (FGFR3) | phosphorylation enrichment (AncSZ) | phosphorylation enrichment (Hck) | phosphorylation enrichment (Fes) | phosphorylation enrichment (EPHB1) | phosphorylation enrichment (Fyn) | phosphorylation enrichment (c-Src) | phosphorylation enrichment (Fer (mouse))
AASHRYDLGGL [QPRT_Y162] | 0.828 | 0.521 | 0.607 | 0.416 | 0.521 | 0.375 | 0.432 | 0.327 | 0.4 | 0.491 | 0.35 | 0.56 | 0.356 | 0.352 | 0.391 | 0.336
AAVDEYLEFRR [FAM221A_Y17_YF] | 0.926 | 0.559 | 0.496 | 0.601 | 0.756 | 0.517 | 0.722 | 0.409 | 0.531 | 1.14 | 1.47 | 0.963 | 0.395 | 0.949 | 1.28 | 0.421
AAVDTVCRHNY [HLA-DRB1_Y107_Y107V] | 0.788 | 0.534 | 0.636 | 0.612 | 0.739 | 0.429 | 0.795 | 0.511 | 0.673 | 0.645 | 0.64 | 0.842 | 0.463 | 0.494 | 0.473 | 0.417
ACCLLYCGDVV [TUBA4A_Y319_R320C] | 0.898 | 0.562 | 0.675 | 1.13 | 1.09 | 7.84 | 1.29 | 4.54 | 1.23 | 1.54 | 1.71 | 1.3 | 9.94 | 1.1 | 4.33 | 3.7
ACEVLYNIVFM [NCF2_Y125_A128V] | 0.798 | 0.403 | 0.733 | 1.8 | 1.59 | 1.16 | 1.84 | 3.19 | 2.03 | 2.4 | 2.95 | 1.93 | 1.17 | 1.55 | 2.18 | 8.66
ADKSVYLMGLN [MYH7_Y386_A385V] | 0.92 | 0.528 | 1.54 | 0.444 | 0.51 | 0.409 | 0.338 | 0.379 | 0.523 | 0.666 | 0.481 | 0.769 | 0.407 | 0.583 | 0.678 | 0.413
AEVDTYCRHNF [HLA-DRB1_Y107_A103E_YF] | 0.826 | 0.454 | 0.696 | 0.532 | 0.719 | 0.556 | 0.618 | 0.473 | 0.61 | 0.988 | 0.6 | 0.935 | 0.594 | 0.567 | 0.509 | 0.813
AFPVSYSSSSA [RET_Y687_G691S] | 0.8 | 0.524 | 0.586 | 0.38 | 0.527 | 0.425 | 0.455 | 0.536 | 0.685 | 0.598 | 0.463 | 0.663 | 0.511 | 0.461 | 0.415 | 0.425
AGIKAYQSCLQ [ADGRA2_Y377_T375K] | 0.767 | 0.57 | 0.64 | 0.453 | 0.841 | 0.55 | 0.85 | 0.558 | 0.572 | 0.786 | 0.537 | 0.983 | 0.583 | 0.383 | 0.55 | 0.424
AGQEDYDRLRP [CDC42_Y64] | 0.825 | 0.609 | 0.698 | 0.576 | 0.839 | 0.654 | 0.689 | 0.471 | 0.69 | 1.13 | 0.785 | 1.07 | 0.598 | 0.546 | 0.452 | 0.508
AHADEYGAEAL [HBA1_Y25_G23D] | 0.781 | 0.393 | 0.66 | 0.398 | 0.96 | 0.403 | 0.791 | 0.536 | 0.564 | 0.97 | 0.511 | 1.1 | 0.538 | 0.458 | 0.46 | 0.412
AIDDKYSRREE [SART1_Y685] | 0.937 | 0.44 | 0.968 | 0.488 | 0.794 | 0.511 | 0.471 | 0.439 | 0.578 | 0.806 | 0.465 | 0.939 | 0.431 | 0.51 | 0.426 | 0.434
AIIGIYNLRDD [CDH23_Y2949_I2950N] | 1.14 | 0.805 | 0.951 | 0.478 | 0.795 | 0.437 | 0.691 | 0.573 | 0.599 | 0.821 | 5.28 | 1 | 0.481 | 6.82 | 5.84 | 0.45
AKAEIYEMRPL [COX10_Y97] | 0.895 | 0.573 | 0.623 | 0.552 | 0.77 | 6.54 | 0.801 | 8.29 | 0.672 | 1.08 | 12.1 | 0.912 | 11 | 11.4 | 9.82 | 6.76
